Assay [1] has as its target HuRatTF, human-rat hybrid TF antigen (human-rat hybrid). The assay can be described thus: ELISA, HuRatTF coated, antibody titrated. Background: ELISA stands for enzyme-linked immunosorbent assay.
The target of assay [2] is human tissue factor (TF) on MDA-MB-231, NCI-H358 and HCT116 cells (human) (UniProt P13726). The assay can be described thus: cell-based or functional assay.
Chain of human tissue factor (TF) on MDA-MB-231, NCI-H358 and HCT116 cells (human) (P13726 33-295): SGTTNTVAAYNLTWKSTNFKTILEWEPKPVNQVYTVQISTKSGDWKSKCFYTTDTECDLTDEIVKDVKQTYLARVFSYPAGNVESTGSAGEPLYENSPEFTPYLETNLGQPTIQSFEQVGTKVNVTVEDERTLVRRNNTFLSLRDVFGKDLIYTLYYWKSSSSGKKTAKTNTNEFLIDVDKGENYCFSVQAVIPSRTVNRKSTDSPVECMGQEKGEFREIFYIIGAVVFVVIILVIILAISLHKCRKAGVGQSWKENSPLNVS

Chain of HuRatTF, human-rat hybrid TF antigen (human-rat hybrid) (chain, as listed by the source limits assumed): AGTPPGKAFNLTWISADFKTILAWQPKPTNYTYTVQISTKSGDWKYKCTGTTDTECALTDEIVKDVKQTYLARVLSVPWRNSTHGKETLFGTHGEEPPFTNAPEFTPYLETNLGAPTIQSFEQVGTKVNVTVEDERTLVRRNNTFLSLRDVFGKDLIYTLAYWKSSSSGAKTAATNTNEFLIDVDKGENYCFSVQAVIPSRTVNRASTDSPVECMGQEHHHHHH

On to “TF011 (monoclonal antibody sequence of tisotumab vedotin)”, for which, in assay [1], the Maximum (OD450 nm) turned out to be 0.0585 OD450 nm. Moreover, the Inhibition rate (%), Factor-VII-Human Chromogenic-Activity blood coagulation pathway assay (FVIIa, MDA-MB-231 cells, FX; antibody 20 µg/mL) in assay [2] was 92.8%.

Source of the values: patent EP4703388A1.
